The record followed here is patent US20190153096A1 (COVAGEN, published 2019).

In this assay the target is T1, Human C1q (EMD Millipore) (human, UniProt P02745 23-245; P02746 28-253; P02747 29-245).
T1 construct: Bought protein; the three subunits are added from general knowledge
As to the kind of experiment: SPR (BIAcore), antibody immobilised on the chip, human C1q injected at 3.125-200 nM.

T1 sequence (P02745 23-245 limits assumed, chain 1 of 3): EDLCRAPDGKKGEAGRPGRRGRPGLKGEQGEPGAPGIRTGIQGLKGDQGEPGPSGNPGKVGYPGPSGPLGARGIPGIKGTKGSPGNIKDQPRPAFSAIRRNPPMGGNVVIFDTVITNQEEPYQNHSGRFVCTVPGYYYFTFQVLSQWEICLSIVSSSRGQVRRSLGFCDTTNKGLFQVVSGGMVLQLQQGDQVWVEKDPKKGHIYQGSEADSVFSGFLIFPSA
T1 sequence (P02746 28-253 limits assumed, chain 2 of 3): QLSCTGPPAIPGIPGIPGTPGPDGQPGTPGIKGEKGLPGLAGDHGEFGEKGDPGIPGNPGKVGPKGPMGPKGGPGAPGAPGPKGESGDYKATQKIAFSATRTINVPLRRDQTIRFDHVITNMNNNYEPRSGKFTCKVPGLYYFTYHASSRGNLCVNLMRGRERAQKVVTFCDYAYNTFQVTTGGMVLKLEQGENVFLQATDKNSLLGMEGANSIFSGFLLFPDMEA
T1 sequence (P02747 29-245 limits assumed, chain 3 of 3): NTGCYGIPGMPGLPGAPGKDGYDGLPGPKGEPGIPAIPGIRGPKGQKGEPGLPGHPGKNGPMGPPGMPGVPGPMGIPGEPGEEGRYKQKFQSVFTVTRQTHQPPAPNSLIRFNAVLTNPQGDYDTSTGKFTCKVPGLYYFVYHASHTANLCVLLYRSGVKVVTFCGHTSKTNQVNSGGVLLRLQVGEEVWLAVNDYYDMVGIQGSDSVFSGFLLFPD
Description: Antibodies were coated onto a CMS chip via amine coupling at coating density of 5000 RU Human C1q (EMD Millipore) was injected in running buffer (PBS pH7.4, 0.05% TWEEN-20) at 200 nM and three-fold serial dilutions thereof at a flow rate of 30 μl/min. Binding was recorded, and KD was determined by curve fitting using the BIAcore software using a steady-state affinity model.

B1: mAb1 DANAPA IgG1 (antibody)
heavy: QVQLQQSGAELARPGASVKMSCKASGYTFTRSTMHWVKQRPGQGLEWIGYINPSSAYTNYNQKFKDKATLTADKSSSTAYMQLSSLTSEDSAVYYCASPQVHYDYNGFPYWGQGTLVTVSAASTKGPSVFPLAPSSKSTSGGTAALGCLVKDYFPEPVTVSWNSGALTSGVHTFPAVLQSSGLYSLSSVVTVPSSSLGTQTYICNVNHKPSNTKVDKKVEPKSCDKTHTCPPCPAPELLGGPSVFLFPPKPKDTLMISRTPEVTCVVVAVSHEDPEVKFNWYVDGVEVHNAKTKPREEQYASTYRVVSVLTVLHQDWLNGKEYKCKVSNKALAAPIEKTISKAKGQPREPQVYTLPPSREEMTKNQVSLTCLVKGFYPSDIAVEWESNGQPENNYKTTPPVLDSDGSFFLYSKLTVDKSRWQQGNVFSCSVMHEALHNHYTQKSLSLSPGK
light: QVVLTQSPAIMSAFPGEKVTMTCSASSSVSYMNWYQQKSGTSPKRWIYDSSKLASGVPARFSGSGSGTSYSLTISSMETEDAATYYCQQWSRNPPTFGGGTKLQITRTVAAPSVFIFPPSDEQLKSGTASVVCLLNNFYPREAKVQWKVDNALQSGNSQESVTEQDSKDSTYSLSSTLTLSKADYEKHKVYACEVTHQGLSSPVTKSFNRGEC
notes: mAb1 with D265A, N297A, P329A (EU); also called DANAPA Fc mutated mAb1
Turning to B1, the binding result is given as “no binding (tested: 200 nM)”.
